Measurements as given in patent US20250009876A1 (H LUNDBECK A S, published 2025).
Changes are numbered by the printed parent chain.

T1: PACAP38 (Pituitary Adenylate Cyclase-Activating Polypeptide, 38 amino acids) (human, not fully specified; the C-terminal lysine is amidated)
T1 peptide: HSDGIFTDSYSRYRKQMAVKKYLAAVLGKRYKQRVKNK

T2: PACAP27 (Pituitary Adenylate Cyclase-Activating Polypeptide, 27 amino acids) (human, the C-terminal leucine is amidated)
T2 peptide: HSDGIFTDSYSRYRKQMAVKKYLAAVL

T3: PAC1-R on PAC1-R-expressing PC-12 cells (UniProt P32215 20-523)
T3 construct: whole, on cells; also called PAC1 receptor
T3 sequence (looked up): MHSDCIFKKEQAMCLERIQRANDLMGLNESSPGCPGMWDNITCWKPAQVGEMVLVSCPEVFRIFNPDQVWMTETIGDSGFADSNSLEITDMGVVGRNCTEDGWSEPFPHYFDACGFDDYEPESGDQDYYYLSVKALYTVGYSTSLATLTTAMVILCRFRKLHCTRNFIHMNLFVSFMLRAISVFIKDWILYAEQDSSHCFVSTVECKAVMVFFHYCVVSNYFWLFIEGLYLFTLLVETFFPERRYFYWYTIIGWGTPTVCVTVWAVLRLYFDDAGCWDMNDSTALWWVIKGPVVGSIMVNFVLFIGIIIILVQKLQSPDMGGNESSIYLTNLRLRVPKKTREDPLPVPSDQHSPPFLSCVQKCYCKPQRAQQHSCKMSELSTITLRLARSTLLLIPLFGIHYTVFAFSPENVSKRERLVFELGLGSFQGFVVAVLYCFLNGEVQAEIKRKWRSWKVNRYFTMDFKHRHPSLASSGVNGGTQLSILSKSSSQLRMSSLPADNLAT

B1: Ab10 (antibody, human IgG1, kappa, N297A, V domains shown)
VH: QSVEESGGRLVTPGTPLTLTCTVSGIDLNSYYMTWVRQAPGKGLEWIGFIDAGGDAYYASWAKGRFTISKTSTTVDLKITSPTTEDTATYFCARDLDLWGQGTLVTVSS
VL: AAVLTQTPSPVSAAVGGTVTINCQSSESVYGNYLAWFQQKPGQPPKLLIYEASKLESGVPSRFSGSGSGTQFTLTISDLQCDDAATYYCAGGDISEGVAFGGGTEVVVKR
notes: Full-length anti-PACAP antibody; rabbit variable regions cloned onto human constant regions (rabbit/human chimeric), expressed in HEK-293
B2: Ab20 (antibody, human IgG1, kappa, N297A, V domains shown)
VH: B1 VH with N29S, T34S, A52T, G53D, D55S, S60T, Q101P
VL: B1 VL with T20S, N22S, G31S, L47F, E56A, S64K, L79V, A85G, D93Y, I94S
notes: Full-length anti-PACAP antibody; rabbit/human chimeric
B3: Ab10.H (antibody, human IgG1, kappa, N297A)
heavy: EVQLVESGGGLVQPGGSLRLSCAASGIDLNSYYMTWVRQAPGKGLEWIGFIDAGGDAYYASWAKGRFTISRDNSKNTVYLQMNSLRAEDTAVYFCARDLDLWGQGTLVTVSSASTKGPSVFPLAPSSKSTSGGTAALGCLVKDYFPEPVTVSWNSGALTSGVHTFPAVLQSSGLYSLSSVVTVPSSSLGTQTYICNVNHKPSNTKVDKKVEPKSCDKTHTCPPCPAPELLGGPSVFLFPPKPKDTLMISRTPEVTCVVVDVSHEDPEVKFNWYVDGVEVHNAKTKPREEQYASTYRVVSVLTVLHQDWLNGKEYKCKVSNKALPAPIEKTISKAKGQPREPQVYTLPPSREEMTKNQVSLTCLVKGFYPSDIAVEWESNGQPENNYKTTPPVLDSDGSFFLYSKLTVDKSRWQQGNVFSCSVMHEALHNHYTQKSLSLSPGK
light: DAQLTQSPSTLSASVGDRVTITCQSSESVYGNYLAWFQQKPGKAPKFLIYEASKLESGVPSRFSGSGSGTEFTLTISSLQPDDFATYYCAGGDISEGVAFGGGTKVEIKRTVAAPSVFIFPPSDEQLKSGTASVVCLLNNFYPREAKVQWKVDNALQSGNSQESVTEQDSKDSTYSLSSTLTLSKADYEKHKVYACEVTHQGLSSPVTKSFNRGEC
notes: Full-length humanized variant of Ab10

Target: T1, PACAP38 (Pituitary Adenylate …)
Assay: cell-based or functional assay

Inhibition of 0.1 nM PACAP38-induced PAC1-R mediated cAMP increase IC50 (pM) | Binder
180 | B1
368 | B2
163 | B3

Target: T2, PACAP27 (Pituitary Adenylate …)
Assay: cell-based or functional assay

Inhibition of 0.1 nM PACAP27-induced PAC1-R mediated cAMP increase IC50 (pM) | Binder
227 | B1
188 | B2
84 | B3

Target: T1, PACAP38 (Pituitary Adenylate …)
Assay: cell-based or functional assay
Remark: another data set of the same source

Inhibition of 5 nM PACAP38-induced human VPAC1-R mediated cAMP increase IC50 (pM) | Binder
649 | B1
3890 | B2
1340 | B3

Target: T1, PACAP38 (Pituitary Adenylate …)
Assay: cell-based or functional assay
Remark: another data set of the same source

Inhibition of 1 nM PACAP38-induced human VPAC2-R mediated cAMP increase IC50 (pM) | Binder
188 | B1
14600 | B2
988 | B3

Target: T1, PACAP38 (Pituitary Adenylate …)
Assay: SPR (ProteOn XPR36), antibody amine-coupled, peptide analyte, 1:1 Langmuir fit
Procedure, shortened: (§1)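 Antibody amine-coupled to GLC or GLM chips; peptide antigen injected at 1.23 nM to 100 nM, association 2-4 min, dissociation 3-120 min. Sensorgrams fitted to a 1:1 Langmuir model; surfaces regenerated with 0.85% phosphoric acid between analytes.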

Kd [nM] | koff [s⁻¹] | kon [M⁻¹ s⁻¹] | Binder
0.075 | 2e-05 | 260000 | B1
0.21 | 2.4e-05 | 120000 | B2
≤ 0.029 | ≤ 1e-05 | 340000 | B3

Target: T2, PACAP27 (Pituitary Adenylate …)
Assay: as above
Procedure, shortened: as §1

Kd [nM] | koff [s⁻¹] | kon [M⁻¹ s⁻¹] | Binder
≤ 0.01 | ≤ 1e-05 | 1e+06 | B1
0.07 | 2.2e-05 | 320000 | B2
0.033 | 1.8e-05 | 530000 | B3

What follows are binders tested against T3, PAC1-R on PAC1-R-expressing PC-12 cells (assay: cell surface binding assay (DELFIA TRF): antibody pre-incubated with PACAP38, added to PAC1-R-expressing PC-12 cells, detected with Eu anti-human IgG).

binding result | Binder
no binding (tested: about 5000 nM) | B1
no binding (tested: about 500 nM) | B2
no binding (tested: about 70 nM) | B3
